Laboratory results from patent US20200140561A1 (BLUEFIN BIOMEDICINE, published 2020).
Where a chain is given by its changes, count along the chain named. Blank lines part the entries; values can stand above or below the binder they belong to.

Key:
Experiment in all cases: cell-based or functional assay
human IL1RAP [1] = molecular target: T1, human IL1RAP (human, UniProt Q9NPH3 21-570)
T1 sequence: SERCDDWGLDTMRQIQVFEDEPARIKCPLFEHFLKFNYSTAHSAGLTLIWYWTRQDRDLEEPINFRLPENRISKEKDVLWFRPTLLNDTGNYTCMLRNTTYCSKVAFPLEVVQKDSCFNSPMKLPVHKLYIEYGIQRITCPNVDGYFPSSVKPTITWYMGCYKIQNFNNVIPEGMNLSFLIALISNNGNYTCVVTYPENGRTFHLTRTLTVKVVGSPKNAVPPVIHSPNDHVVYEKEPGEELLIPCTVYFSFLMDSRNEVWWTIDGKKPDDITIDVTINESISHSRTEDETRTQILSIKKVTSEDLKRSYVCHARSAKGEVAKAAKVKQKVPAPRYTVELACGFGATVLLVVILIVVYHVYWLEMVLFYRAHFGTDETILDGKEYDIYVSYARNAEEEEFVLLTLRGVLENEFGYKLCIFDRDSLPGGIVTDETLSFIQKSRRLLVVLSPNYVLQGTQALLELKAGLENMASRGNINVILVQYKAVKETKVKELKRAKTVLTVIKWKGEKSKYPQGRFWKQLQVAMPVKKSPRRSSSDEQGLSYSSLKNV

human IL1RAP [2] = molecular target: T1, human IL1RAP; remark: listed apart in the source
human IL1RAP [3] = molecular target: T1, human IL1RAP; remark: listed apart in the source
human IL1RAP [4] = molecular target: T1, human IL1RAP; remark: listed apart in the source

B1: 5G8_18A1 (antibody, V domains shown)
VH: QVELQESGPGLVKPSDTLSLTCTVTGGSISTYYWSWIRQPPGKGLEWIGYIFYTGTTNYNPSLKSRVTISVDASKNQFSLKLNSVTAADTAVYYCARDGSLDYWGQGALVTVSS
VL: DIQMTQSPSSLSASVGDRVTITCRASQSISNYLNWYQQKPGKAPKLLIFVASLLQSGVPSRFSGSGSGTDFTLTISSLQPEDFATYYCQQSYSTPFTFGPGTKLEIK
EC50 (inhibition of IL-1beta signalling, HEK-Blue IL-1beta reporter cells, 0.5 ng/ml IL-1beta, Abs. 620 nM) (human IL1RAP [1]): 580 pM
EC50 (inhibition of IL-1alpha signalling, HEK-Blue IL-1beta reporter cells, 0.5 ng/ml IL-1a, Abs. 620 nM) (human IL1RAP [2]): 830 pM

B2: 16H2_17D2 (antibody, V domains shown)
VH: QVQLVESGGGVVQPGGSLRLSCAASGFTFSSHGMHWVRQAPGKGLEWVAVIWYDGSNKFYTDSVQGRFTISRDNSKNTLNLQMNSLRAEDTAVYYCAREGLRAGYYFDFWGQGTLVTVSS
VL: B1 VL with S28R, N31F, L33S, F49Y, V50A, L53S, Y87F, Y92H, F96L, P100G
EC50 (inhibition of IL-1beta signalling, HEK-Blue IL-1beta reporter cells, 0.5 ng/ml IL-1beta, Abs. 620 nM) (human IL1RAP [1]): 100 pM
EC50 (inhibition of IL-1alpha signalling, HEK-Blue IL-1beta reporter cells, 0.5 ng/ml IL-1a, Abs. 620 nM) (human IL1RAP [2]): 90 pM

B4: 37E10_15B5 (antibody, V domains shown)
VH: QVQLVESGGGVVQPGRSLRLSCAASGFTFRSHGMHWVRQAPGKGLEWVAVIWYDGSSEYYADSVKGRFTISRDNSKNTLYLQMNSLRAEDTAVYYCARENVYGSGWFFDYWGQGTLVTVSS
VL: EIVMTQSPATLSVSPGERASLSCRASQSVGSNLAWYQQRPGQAPRLLIFGASTRATGIPARFSGSRSGTEFTLTISSLQSEDFALYYCQQYNNWPPWTFGQGTKLEIK
EC50 against IL-1α (IL-1 signaling reporter cell assay) (human IL1RAP [4]): < 1000 pM
EC50 against IL-1β (IL-1 signaling reporter cell assay) (human IL1RAP [4]): < 1000 pM
EC50 (inhibition of IL-1beta signalling, HEK-Blue IL-1beta reporter cells, 0.5 ng/ml IL-1beta, Abs. 620 nM) (human IL1RAP [1]): 150 pM
EC50 (inhibition of IL-1alpha signalling, HEK-Blue IL-1beta reporter cells, 0.5 ng/ml IL-1a, Abs. 620 nM) (human IL1RAP [2]): 190 pM
EC50 (inhibition of IL-33 signalling, HEK-Blue IL-33 reporter cells, 0.5 ng/ml IL-33, Abs. 620 nm; partial, lower plateau about 0.4) (human IL1RAP [3]): 320 pM

Second part, the binder after the results:

EC50 (inhibition of IL-1beta signalling, HEK-Blue IL-1beta reporter cells, 0.5 ng/ml IL-1beta, Abs. 620 nM) (human IL1RAP [1]): 290 pM
EC50 (inhibition of IL-1alpha signalling, HEK-Blue IL-1beta reporter cells, 0.5 ng/ml IL-1a, Abs. 620 nM) (human IL1RAP [2]): 660 pM
EC50 (inhibition of IL-33 signalling, HEK-Blue IL-33 reporter cells, 0.5 ng/ml IL-33, Abs. 620 nm; partial) (human IL1RAP [3]): 1760 pM
B3: 36A10_21B6 (antibody, V domains shown)
VH: QGQVVESGGGVVQPGRSLRLSCAASGFTFSSYTLHWVRQAPGKGLEWVAVIWYDGSNKYYVDSVKGRFTISRDNSKNTLYLQMNSLRAEDTAVYYCAREYGSGSYYNVYYGMDVWGQGTTVTLSS
VL: DIVMTQSPLSLPVTPGEPASISCRSSQSLLHSNGYNYLDWYLQKPGQSPHLLIYLASNRASGVPDRFSGSGSGTDFTLKISRVEAEDVGFYYCMQTLQIPLTFGGGTKVEIK

EC50 against IL-1α (IL-1 signaling reporter cell assay) (human IL1RAP [4]): < 1000 pM
EC50 against IL-1β (IL-1 signaling reporter cell assay) (human IL1RAP [4]): < 1000 pM
EC50 (inhibition of IL-1beta signalling, HEK-Blue IL-1beta reporter cells, 0.5 ng/ml IL-1beta, Abs. 620 nM) (human IL1RAP [1]): 170 pM
EC50 (inhibition of IL-1alpha signalling, HEK-Blue IL-1beta reporter cells, 0.5 ng/ml IL-1a, Abs. 620 nM) (human IL1RAP [2]): 180 pM
EC50 (inhibition of IL-33 signalling, HEK-Blue IL-33 reporter cells, 0.5 ng/ml IL-33, Abs. 620 nm; partial, lower plateau about 0.4) (human IL1RAP [3]): 440 pM
B5: 44E5_15C5 (antibody, V domains shown)
VH: B4 VH with E58D, Y80F, R87S
VL: B4 VL with R39K
